Measured values published in article PMC3947653 (Peptides, 2013).

Tests used:
[1] = Aging of glucagon in glycine buffer at 37° C, analysed by LCMS; assay type: physicochemical
[2] = system: animals; details: cited from earlier work
[3] = cited from earlier work

Substance: glucagon
- width of main LCMS peak, glucagon aged at pH 10 ([1]; 1 mg/ml in glycine buffer pH 10, 7 days at 37° C, reverse-phase LCMS): 3 min
- deamidation events after aging, pH 10 vs pH 9 ([1]; aged 7 days at 37° C, least-squares fitting of isotopic distribution of the m/z spectrum): more deamidation events than pH 9
- width of main LCMS peak, fresh glucagon ([1]; unaged glucagon, reverse-phase LCMS): 1 min
- bioactivity of fibrillated glucagon given to animals [2]: retains much of its bioactivity
- aggregation at alkaline pH vs acid pH [3]: much less prone to aggregation than glucagon prepared at acid pH
